Data published in publication PMC7049810, “Outer membrane lipoprotein NlpI scaffolds peptidoglycan hydrolases within multi‐enzyme complexes in Escherichia coli” (The EMBO Journal, 2020).

Key:
[1] = target: the molecule itself; experiment: AUC; sedimentation velocity, 45,000 rpm, 20°C, 25 mM HEPES/NaOH, 150 mM NaCl, pH 7.5; NlpI 0.3-1.2 mg/ml; c(s) model
[2] = target: T1, PBP7, purified (Escherichia coli, UniProt P0AFI5 26-310, where used as the labelled protein in MST: NT647 RED-NHS dye on amines); experiment: pull-down; Ni2+-NTA agarose beads; His-tagged protein with untagged or native ligand, overnight at 4°C; 10 mM HEPES/NaOH, 10 mM MgCl2, 150 mM NaCl, 0.05% Triton X-100, pH 7.5; washes with 30 mM imidazole; SDS-PAGE; settings: both partners purified
T1 construct: PBP7 (DD-endopeptidase) of E. coli; source: E. coli BL21 (λDE3), purified (HisTrap HP, Superdex 200)
T1 sequence (looked up): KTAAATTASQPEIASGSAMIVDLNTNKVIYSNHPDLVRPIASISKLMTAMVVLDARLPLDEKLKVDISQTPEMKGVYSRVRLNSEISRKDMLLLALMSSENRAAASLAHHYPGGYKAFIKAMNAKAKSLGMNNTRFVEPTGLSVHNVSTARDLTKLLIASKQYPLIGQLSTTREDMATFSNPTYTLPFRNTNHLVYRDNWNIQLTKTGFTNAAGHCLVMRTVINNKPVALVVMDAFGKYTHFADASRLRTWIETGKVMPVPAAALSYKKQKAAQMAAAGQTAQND

[3] = target: T2, PBP4, native, purified (Escherichia coli, UniProt P24228 21-477, where used as the labelled protein in MST: NT647 RED-NHS dye on amines); experiment: MST; titration: NT647-labelled protein against a two-fold serial dilution (16 steps) of unlabelled ligand; 25 mM HEPES/NaOH, 150 mM NaCl, 0.05% Triton X-100, pH 7.5; Monolith NT.115; apparent constants; for NlpI with itself: dimer to monomers; settings: both partners purified
T2 construct: PBP4 (DD-endopeptidase) of E. coli, 'native PBP4' purified after Kishida et al (2006); Untagged ('native'); source: E. coli BL21 (λDE3), purified (HiTrap Q, hydroxyapatite, Superdex 200)

[4] = target: the molecule itself; experiment: as above
[5] = target: T3, MepM (Escherichia coli, UniProt P0AFS9 41-440); experiment: as above; settings: both partners purified
T3 construct: Peptidoglycan endopeptidase MepM of E. coli; source: purified as previously described in Moré et al (2019)
T3 sequence (looked up): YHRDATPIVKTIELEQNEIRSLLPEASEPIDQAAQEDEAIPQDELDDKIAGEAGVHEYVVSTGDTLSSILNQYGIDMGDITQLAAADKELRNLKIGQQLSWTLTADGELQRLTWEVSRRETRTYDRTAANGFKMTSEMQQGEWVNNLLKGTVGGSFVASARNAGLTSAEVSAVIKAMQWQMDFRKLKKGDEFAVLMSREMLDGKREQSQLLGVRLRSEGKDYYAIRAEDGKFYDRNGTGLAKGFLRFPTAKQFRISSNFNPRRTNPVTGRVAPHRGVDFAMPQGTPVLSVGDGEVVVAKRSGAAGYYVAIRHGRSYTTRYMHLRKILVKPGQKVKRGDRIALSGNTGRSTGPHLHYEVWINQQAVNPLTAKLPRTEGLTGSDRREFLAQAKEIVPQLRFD

T2 sequence (P24228 21-477): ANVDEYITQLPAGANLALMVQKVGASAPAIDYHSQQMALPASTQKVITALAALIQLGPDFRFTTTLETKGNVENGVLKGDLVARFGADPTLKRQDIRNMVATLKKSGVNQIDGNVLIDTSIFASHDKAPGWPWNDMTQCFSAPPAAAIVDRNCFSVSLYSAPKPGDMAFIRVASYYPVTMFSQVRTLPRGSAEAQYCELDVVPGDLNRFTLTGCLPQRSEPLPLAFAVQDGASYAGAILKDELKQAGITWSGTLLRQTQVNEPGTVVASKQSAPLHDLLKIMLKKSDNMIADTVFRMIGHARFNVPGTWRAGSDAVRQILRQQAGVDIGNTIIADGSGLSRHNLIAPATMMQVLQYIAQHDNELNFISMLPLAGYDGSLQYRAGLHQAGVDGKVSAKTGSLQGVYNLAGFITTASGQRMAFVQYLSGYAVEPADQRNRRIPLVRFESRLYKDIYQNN

B1: NlpI, soluble version lacking its membrane anchor (natural protein, Escherichia coli)
chain: SNTSWRKSEVLAVPLQPTLQQEVILARMEQILASRALTDDERAQLLYERGVLYDSLGLRALARNDFSQALAIRPDMPEVFNYLGIYLTQAGNFDAAYEAFDSVLELDPTYNYAHLNRGIALYYGGRDKLAQDDLLAFYQDDPNDPFRSLWLYLAEQKLDEKQAKEVLKQHFEKSDKEQWGWNIVEFYLGNISEQTLMERLKADATDNTSLAEHLSETNFYLGKYYLSLGDLDSATALFKLAVANNVHNFVEHRYALLELSLLGQDQDDLAESDQQ
modifications: where used as fl-NlpI in MST: NT647 RED-NHS dye on amines
notes: Outer membrane lipoprotein NlpI of E. coli, soluble version lacking its membrane anchor; Homodimer by AUC; also called fl-NlpI (fluorescently labelled); His-NlpI; source: E. coli BL21 (λDE3), purified (HisTrap HP, Superdex 200)
stoichiometry N [1]: 2
binding result [2]: binds
Kd [3]: 177 nM
Kd [4]: 126 nM
Kd [5]: 152 nM
